Experimental data published in patent publication US20230002496A1 (STAIDSON BEIJING BIOPHARMACEUTICALS, published 2023).
Residue numbers refer to the chain shown, from its start.

T1: human GM-CSFRα-6His (human, UniProt P15509 23-320)
T1 construct: pTT5-GMRa-6his (ECD), made in 293F cells; also called GMRah; GMRa-6his(ECD)
T1 sequence: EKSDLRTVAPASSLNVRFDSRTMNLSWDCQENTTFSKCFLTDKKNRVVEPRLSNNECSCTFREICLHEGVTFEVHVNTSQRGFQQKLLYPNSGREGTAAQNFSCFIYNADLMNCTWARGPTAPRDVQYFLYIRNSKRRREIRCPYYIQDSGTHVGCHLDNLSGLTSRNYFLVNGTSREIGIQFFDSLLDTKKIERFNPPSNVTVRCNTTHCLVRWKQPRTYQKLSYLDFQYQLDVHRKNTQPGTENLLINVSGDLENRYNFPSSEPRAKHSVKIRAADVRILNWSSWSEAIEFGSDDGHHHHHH

B1: E09-IgG1 (antibody, V domains shown)
VH: QMQLVQSGAEVKKPGASVKVSCKVSGHTLTELSMHWVRQAPGKGLEWMGGFDPEDGETIYAQKFQGRVTMTGDTSTDTAYLELSSLRSEDTALYYCATGRYCGHASCYGFDYWGQGTLVTVSS
VL: EIVMTQSPATLSLSPGERATLSCRASQSVSSYLAWYQQKPGQAPRLLIYGASSRATGIPDRFSGSGSGTDFTLTISRLEPEDFAVYYCQQYNNWPPTFGQGTKLEIK
notes: human IgG1, human kappa; also called E9
B2: E16-IgG1 (antibody, V domains shown)
VH: B1 VH with H27Y, M34I, T58A, F64S, C102S, G103E, A105S, S106T, C107S
VL: B1 VL with N92D, N93S, P96Y
notes: human IgG1, human kappa
B3: E27-IgG1 (antibody, V domains shown)
VH: B1 VH with H27Y, M34I, C102I, G103S, H104F, A105M, S106F, C107T
VL: B1 VL
notes: human IgG1, human kappa
B4: E29-IgG1 (antibody, V domains shown)
VH: B1 VH with M34I, G103F, H104P, A105D, S106T
VL: B1 VL with N92D, W94S, P96H
notes: human IgG1, human kappa
B5: E30-IgG1 (antibody, V domains shown)
VH: B1 VH with M34I, G103S, H104T, A105D, S106T
VL: B1 VL with N92D, W94S, P96H
notes: human IgG1, human kappa
B6: E34-IgG1 (antibody, V domains shown)
VH: B1 VH with H27Y, M34I, C102S, G103F, H104T, A105D, S106L, C107A
VL: B1 VL with N92D, N93S, W94S
notes: human IgG1, human kappa
B7: E54-IgG1 (antibody, V domains shown)
VH: B1 VH with H27Y, C102S, G103S, H104Y, A105D, S106I, C107A
VL: B1 VL with N93S, W94S
notes: human IgG1, human kappa
B8: T119-IgG1 (antibody, V domains shown)
VH: B1 VH with M34I, I59N, F64S, G103S, H104T, A105D, S106T
VL: B1 VL
notes: human IgG1, human kappa; parent antibody
B9: E39-IgG1 (antibody, V domains shown)
VH: B1 VH with M34I, G103S, H104S, A105D, S106L
VL: B1 VL with N92D, W94S, P96H
notes: human IgG1, human kappa
B10: E40-IgG1 (antibody, V domains shown)
VH: B1 VH with M34I, C102T, G103S, H104L, A105D, S106E, C107S
VL: B1 VL with N92D, W94S, P96Y
notes: human IgG1, human kappa
B11: E85-IgG1 (antibody, V domains shown)
VH: B1 VH with H27Y, M34I, F64S, C102S, G103S, H104Y, A105F, S106T, C107N
VL: B1 VL with P96Y
notes: human IgG1, human kappa
B12: E87-IgG1 (antibody, V domains shown)
VH: B1 VH with H27Y, M34I, F64S, C102V, G103S, H104L, A105F, S106F, C107N
VL: B1 VL
notes: human IgG1, human kappa
B13: E105-IgG1 (antibody, V domains shown)
VH: B1 VH with H27Y, M34I, C102T, G103S, H104L, A105M, S106F, C107T
VL: B1 VL
notes: human IgG1, human kappa
B14: E113-IgG1 (antibody, V domains shown)
VH: B1 VH with H27Y, M34I, F64S, C102T, G103E, H104L, A105F, S106A, C107S
VL: B1 VL with P96Y
notes: human IgG1, human kappa
B15: E200a-IgG1 (antibody, V domains shown)
VH: B1 VH with H27Y, S33P, C102T, G103I, H104I, A105T, S106T, C107N
VL: B1 VL with N92D
notes: human IgG1, human kappa
B16: EII55-IgG1 (antibody, V domains shown)
VH: QMQLVQSGAEVKKPGASVKVSCKVSGYTLTELSIHWVRQAPGKGLEWMGGFDGDWHETIYAQKFQGRVTMTGDTSTDTAYLELSSLRSEDTALYYCATGRYTSLDATYGFDYWGQGTLVTVSS
VL: B1 VL with N92G, W94R, P96D
notes: human IgG1, human kappa
B17: E31-IgG1 (antibody, V domains shown)
VH: B1 VH with H27Y, M34I, F64S, C102S, G103E, H104S, A105F, S106A, C107S
VL: B1 VL with N92D, P96Y
notes: human IgG1, human kappa
B18: E61-IgG1 (antibody, V domains shown)
VH: B1 VH with H27Y, C102A, G103W, H104T, A105D, S106I, C107A
VL: B1 VL with N92D, W94S, P96S
notes: human IgG1, human kappa
B19: E83-IgG1 (antibody, V domains shown)
VH: B1 VH with H27Y, M34I, F64S, G103F, H104Y, A105D, S106L
VL: B1 VL with N92S, W94S
notes: human IgG1, human kappa
B20: E84-IgG1 (antibody, V domains shown)
VH: B1 VH with H27Y, F64S, C102T, G103R, H104G, A105W, S106F, C107N
VL: B1 VL with P96Y
notes: human IgG1, human kappa
B21: E88-IgG1 (antibody, V domains shown)
VH: B1 VH with G103H, H104K, A105D, S106G
VL: B1 VL with N92D, N93S, W94S, P96H
notes: human IgG1, human kappa
B22: E90-IgG1 (antibody, V domains shown)
VH: B1 VH with H27Y, M34I, F64S, C102T, H104L, A105Y, S106A, C107S
VL: B1 VL with N92D, P96Y
notes: human IgG1, human kappa
B23: E164-IgG1 (antibody, V domains shown)
VH: B1 VH with F64S, C102T, G103N, H104D, A105F, S106A, C107N
VL: B1 VL with P96Y
notes: human IgG1, human kappa
B24: E172-IgG1 (antibody, V domains shown)
VH: B1 VH with H27Y, C102A, G103N, H104L, A105Y, S106N, C107N
VL: B1 VL
notes: human IgG1, human kappa
B25: E90-IgG4 (antibody, V domains shown)
VH: B1 VH with H27Y, M34I, F64S, C102T, H104L, A105Y, S106A, C107S
VL: B1 VL with N92D, P96Y
notes: human IgG4, human kappa
B26: E94-IgG4 (antibody, V domains shown)
VH: B1 VH with G103E, H104T, A105D, S106I
VL: B1 VL
notes: human IgG4, human kappa
B27: E113-IgG4 (antibody, V domains shown)
VH: B16 VH with G53P, D54E, W55D, H56G, F64S, S103E, D105F, T107S
VL: B1 VL with P96Y
notes: human IgG4, human kappa
B28: E200a-IgG4 (antibody, V domains shown)
VH: B1 VH with H27Y, S33P, C102T, G103I, H104I, A105T, S106T, C107N
VL: B1 VL with N92D
notes: human IgG4, human kappa
B29: EII33-IgG4 (antibody, V domains shown)
VH: B16 VH with W55G, H56E, D105A
VL: B1 VL with N92R, P96F
notes: human IgG4, human kappa
B30: EII52-IgG4 (antibody, V domains shown)
VH: B16 VH with W55I, H56E, D105A, A106T
VL: B1 VL with N92A, W94P, P96N
notes: human IgG4, human kappa
B31: T119-IgG4 (antibody, V domains shown)
VH: B1 VH with M34I, I59N, F64S, G103S, H104T, A105D, S106T
VL: B1 VL
notes: human IgG4, human kappa; parent antibody

molecular target: T1, human GM-CSFRα-6His; assay: ELISA on human GM-CSFRα, antibodies as human IgG1; x axis 'Log Ab concentration', no unit

Does B1 bind?
Result: binds

Does B2 bind?
Result: binds

Does B3 bind?
Result: binds

Does B4 bind?
Result: binds

Does B5 bind?
Result: binds

Does B6 bind?
Result: binds

Does B7 bind?
Result: binds

Does B8 bind?
Result: binds

molecular target: T1, human GM-CSFRα-6His; assay: as above; remark: another data set of the same source

Does B9 bind?
Result: binds

Does B10 bind?
Result: binds

Does B11 bind?
Result: binds

Does B12 bind?
Result: binds

Does B13 bind?
Result: binds

Does B14 bind?
Result: binds

Does B15 bind?
Result: binds

Does B16 bind?
Result: binds

molecular target: T1, human GM-CSFRα-6His; assay: as above; remark: another data set of the same source

Does B17 bind?
Result: binds

Does B18 bind?
Result: binds

Does B19 bind?
Result: binds

Does B20 bind?
Result: binds

Does B21 bind?
Result: binds

Does B22 bind?
Result: binds

Does B23 bind?
Result: binds

Does B24 bind?
Result: binds

molecular target: T1, human GM-CSFRα-6His; assay: competitive ELISA, title on the sheet 'Blocking GMRah binding to GM-CSF'; antibody (human IgG4) titrated; blocked ligand GM-CSF; x axis 'Log Ab concentration', no unit

Does B25 bind?
Result: binds

Does B26 bind?
Result: binds

Does B27 bind?
Result: binds

Does B28 bind?
Result: binds

Does B29 bind?
Result: binds

Does B30 bind?
Result: binds

Does B31 bind?
Result: binds
